In test [1] the target is N-terminally thioredoxin (Trx)-tagged Ct domain of CaeA2 (Actinoalloteichus cyanogriseus) (UniProt M1F4W8). As to the kind of experiment: ITC. (In general: In ITC the heat of successive injections is recorded.)
In test [2] the target is T1, N-terminally thioredoxin (Trx)-tagged Ct domain of CaeA2 (Actinoalloteichus cyanogriseus, UniProt M1F4W8 2080-2484).
T1 sequence (looked up): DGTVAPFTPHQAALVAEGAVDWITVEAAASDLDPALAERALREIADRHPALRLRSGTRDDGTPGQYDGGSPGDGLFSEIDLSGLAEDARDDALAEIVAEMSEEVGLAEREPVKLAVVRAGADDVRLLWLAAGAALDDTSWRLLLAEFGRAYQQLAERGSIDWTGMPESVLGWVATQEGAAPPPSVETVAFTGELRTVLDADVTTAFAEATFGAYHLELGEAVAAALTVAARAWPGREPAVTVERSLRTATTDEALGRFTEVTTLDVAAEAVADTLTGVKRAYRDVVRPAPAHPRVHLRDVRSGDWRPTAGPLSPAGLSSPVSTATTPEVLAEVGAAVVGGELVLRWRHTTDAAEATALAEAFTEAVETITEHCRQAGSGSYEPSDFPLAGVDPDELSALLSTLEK
In words: ITC.

Consider two molecules from publication doi:10.1101/2020.12.07.415471 (bioRxiv, 2020).

On to ColB1 (enzyme), for which, in test [1], the Kd (usually the equilibrium constant for the complex coming apart) was 1180 nM.

B1: MBP-fused CaeB1 variant (enzyme)
chain: MTTGNGAAPPPLTRLSPEDEAWRAHVRAFAEEHIAPLSDRMDRDATLDPGLREKLFSAGLMAVEAPARYGGRGGSLFQVVLTIEEVARVDPGVAVGVDVHNALVVATLLRQGTGDQKRRRLPLLATRQVGAFALSEENAGSDAFAGTTTAVPTSDGGYRINGRKRWTSNAGQADVFLVFARTEGHGSSAFLVDRTAEGLSIDPRTEQMGVRAAATADVVLTDVRVRRQDCVGGPGGGEGVAIGALDIGRIGIAAQMVGLAQGALDEAVAYSRTREQFGQPIGSYQGVRFTLADIATEVAAARALLYDVTRTVAAGTDIAERLRLTAMAKYFASQVAERAASRALEVLGGNGFTREYPLERFYRDVKAGKIYEGTSNMLLRSIAGSL
B1 returned an equilibrium dissociation constant (Kd) in test [2] of 530 ± 120 nM.
